In publication PMC11257983 (2024):

B1: V5-KSR mutant KSR:Y925D [Drosophila] / Flag-CNK^2–549 [Drosophila] (parent)
chain 1: MSSNNNAPASAPDTGSTNANDPISGSLSVDSNLVIIQDMIDLSANHLEGLRTQCAISSTLTQQEIRCLESKLVRYFSELLLAKMRLNERIPANGLVPHTTGNELRQWLRVVGLSQGTLTACLARLTTLEQSLRLSDEEIRQLLADSPSQREEEELRRLTRAMQNLRKCMESLESGTAASNNDPEQWHWDSWDRPTHIHRGSVGNIGLGNNSTASPRTHHRQHGVKGKNSALANSTNFKSGRQSPSATEELNSTQGSQLTLTLTPSPPNSPFTPSSGLSSSLNGTPQRSRGTPPPARKHQTLLSQSHVQVDGEQLARNRLPTDPSPDSHSSTSSDIFVDPNTNASSGGSSSNVLMVPCSPGVGHVGMGHAIKHRFTKALGFMATCTLCQKQVFHRWMKCTDCKYICHKSCAPHVPPSCGLPREYVDEFRHIKEQGGYASLPHVHGAAKGSPLVKKSTLGKPLHQQHGDSSSPSSSCTSSTPSSPALFQQRERELDQAGSSSSANLLPTPSLGKHQPSQFNFPNVTVTSSGGSGGVSLISNEPVPEQFPTAPATANGGLDSLVSSSNGHMSSLIGSQTSNASTAATLTGSLVNSTTTTSTCSFFPRKLSTAGVDKRTPFTSEYTDTHKSNDSDKTVSLSGSASTDSDRTPVRVDSTEDGDSGQWRQNSISLKEWDIPYGDLLLLERIGQGRFGTVHRALWHGDVAVKLLNEDYLQDEHMLETFRSEVANFKNTRHENLVLFMGACMNPPYLAIVTSLCKGNTLYTYIHQRREKFAMNRTLLIAQQIAQGMGYLHAREIIHKDLRTKNIFIENGKVIITDFGLFSSTKLLYCDMGLGVPHNWLCYLAPELIRALQPEKPRGECLEFTPYSDVYSFGTVWYELICGEFTFKDQPAESIIWQVGRGMKQSLANLQSGRDVKDLLMLCWTYEKEHRPQFARLLSLLEHLPKKRLARSPSHPVNLSRSAESVF
chain 2: AYINIAEWTPDQVTDWIKGLDESMKGYLYEFSKQEIGGRALLNIRPYELENLGMLRIGHQEIVLEAVENLRNFHYHLKNDNLQFMALHVATAAKNLHRELARNHAESTKIDTRILHDITRTIATLKPLVGSLERTPFRKQEMYREYCGNVLKCGLELATIAHRDRFALQPVPAIRQSAERLENLANFVIQDISDPMVLQPASLNLVTLKKRESELGFNIESSYNGIHRVTDIKYNSPAHNSGKIEDGDEIVQINYQTVVGWQHRTVLEHLREALPDVVLTVKKRPKHTKMFGQIYMQPYRLPSKKRNMAARWAAQMPSPRAAFLTLDTEQLATGGTGSAVPDPSKSLSSEKREVLTKANPVSSASDSDSSCSDIPTPTDPKLAAREIRLYYPKPRALLQRRNTICGCEYLSLKNSDLVVPSWHERKPGIGSPTNCDPGSPSIRDKSISFGYGLEMAARPTTCIGIAGDTSTDKARRMFHEARKLKQLTEDSQREFLVDRYKPGVSKVVRFDAKEDYVMKNEKFICNVENTILETFEPIPFADEGDEDA
B2: GST-HYP [Drosophila] / Myc-MEK [Drosophila] (parent)
chain 1: MSKNKLNLVLPPVNTEATVAAATVAPTPPFKTPSGTDTHSLLGKPKTSIDALTETLEGLDMGDTERKRIKMFLSQKEKIGELSDEDLEKLGELGSGNGGVVMKVRHTHTHLIMARKLIHLEVKPAIKKQILRELKVLHECNFPHIVGFYGAFYSDGEISICMEYMDGGSLDLILKRAGRIPESILGRITLAVLKGLSYLRDNHAIIHRDVKPSNILVNSSGEIKICDFGVSGQLIDSMANSFVGTRSYMSPERLQGTHYSVQSDIWSLGLSLVEMAIGMYPIPPPNTATLESIFADNAEESGQPTDEPRAMAIFELLDYIVNEPPPKLEHKIFSTEFKDFVDICLKKQPDERADLKTLLSHPWIRKAELEEVDISGWVCKTMDLPPSTPKRNTSPN
chain 2: MGEETINSTQNKTRTKTTRPKAVYLWTVSDVLKWYRRHCGEYTQYEQLFAQHDITGRALLRITDSSLQRMGVTDNRDREAIWREIVKQRLKTDIMEIRDMERLNIY
B3: GST-HYP [Drosophila] / V5-KSR [Drosophila] (parent)
chain 1: B1 chain 1
chain 2: B2 chain 2
B4: Flag-CNK^2–549 [Drosophila] / Myc-MEK [Drosophila] (parent)
chain 1: B2 chain 1
chain 2: B1 chain 2

Variants of: B1
Experiment: GST pull-down, immunoblot quantification
Conditions: with Flag-CNK^2–549 [Drosophila]; S2 cells; Flag-CNK2–549, GST-HYP + RRM (Ha-RASV12, Pyo-RAF, Myc-MEK) co-expressed; captured via GST-HYP; anti-Myc (MEK) blot; parent: 1

| Variant | ratio to parent |
| --- | --- |
| chain 1 Y925D | 0.07 |
| chain 1 M902D | 0.05 |
| chain 1 K903D | 0.04 |
| chain 1 E926R | 1.23 |

Same assay, conditions: with Flag-CNK^2–549 [Drosophila]; S2 cells; Flag-CNK2–549, GST-HYP + RRM (Ha-RASV12, Pyo-RAF, Myc-MEK) co-expressed; captured via GST-HYP; anti-V5 (KSR) blot; parent: 1

| Variant | ratio to parent |
| --- | --- |
| chain 1 Y925D | 0.12 |
| chain 1 M902D | 0.07 |
| chain 1 K903D | 0.07 |
| chain 1 E926R | 1.07 |

Same assay, conditions: with V5-KSR [Drosophila]; S2 cells; Flag-CNK2–549, V5-KSR, Myc-MEK, GST-HYP co-expressed; captured via GST-HYP; anti-V5 (KSR) blot; parent: 1

| Variant | ratio to parent |
| --- | --- |
| chain 2 R98E | 0.81 |
| chain 2 N95E | 0.92 |
| chain 2 R45F | 0.99 |
| chain 2 Q83E | 0.16 |
| chain 2 Y75R | 0.74 |
| chain 2 N81E | 0.15 |
| chain 2 N81W | 0.07 |

Same assay, conditions: with V5-KSR [Drosophila], S2 cells, GST-HYP, Myc-MEK co-expressed, captured via GST-HYP, anti-V5 (KSR) blot, parent: 1

| Variant | ratio to parent |
| --- | --- |
| chain 2 D194K | 0.08 |
| chain 2 V197E | 0.07 |
| chain 2 D194K V197E | 0.05 |
| chain 2 S193A | 0.98 |
| chain 2 M196E | 0.49 |
| chain 2 Q199A | 0.82 |

Same assay, conditions: with V5-KSR [Drosophila]; S2 cells; GST-HYP + RRKM (Ha-RASV12, Pyo-RAF, V5-KSR, Myc-MEK) co-expressed; captured via GST-HYP; anti-V5 (KSR) blot; parent: 1

| Variant | ratio to parent |
| --- | --- |
| chain 2 D194K | 0.04 |
| chain 2 V197E | 0.03 |
| chain 2 S193A | 1 |
| chain 2 M196E | 0.26 |
| chain 2 Q199A | 0.73 |

Same assay, conditions: with V5-KSR [Drosophila]; S2 cells; GST-HYP + RRKM co-expressed; captured via GST-HYP; anti-V5 (KSR) blot; parent: 1

| Variant | ratio to parent |
| --- | --- |
| chain 2 F73R V251R | 0.72 |
| chain 2 E249R V251R | 0.08 |
| chain 2 A66F | 0.97 |
| chain 2 D80R K282D | 0.16 |
| chain 2 A66F F73R | 0.66 |
| chain 2 E249R | 0.82 |
| chain 2 D80R | 0.61 |
| chain 2 V251R | 0.79 |
| chain 2 F73R | 0.87 |
| chain 2 F73R E249R | 0.16 |
| chain 2 K282D | 0.03 |

Variants of: B1
Experiment: GST pull-down, immunoblot quantification
Conditions: with V5-KSR [Drosophila], S2 cells, GST-HYP, Myc-MEK co-expressed, captured via GST-HYP, anti-V5 (KSR) blot, parent: 1

| Variant | ratio to parent |
| --- | --- |
| chain 2 A40F | 0.93 |
| chain 2 K33D | 0.95 |
| chain 2 L267R | 0.89 |
| chain 2 H263A | 0.9 |
| chain 2 M196E | 0.62 |
| chain 2 K109E | 0.92 |
| chain 2 T135F | 0.95 |
| chain 2 R264E | 0.89 |

Variants of: B1
Experiment: GST pull-down, immunoblot quantification
Conditions: with V5-KSR [Drosophila]; S2 cells; GST-HYP, Flag-CNK2–549 + RRKM co-expressed; captured via GST-HYP; anti-V5 (KSR) blot; parent: 1

| Variant | ratio to parent |
| --- | --- |
| chain 2 L151D | 0.14 |
| chain 2 I122D | 0.76 |
| chain 2 I122D L151D | 0.01 |

Same assay, conditions: with Flag-CNK^2–549 [Drosophila]; S2 cells; Flag-CNK2–549, V5-KSR, Myc-MEK, GST-HYP co-expressed; captured via GST-HYP; anti-Myc (MEK) blot; parent: 1

| Variant | ratio to parent |
| --- | --- |
| chain 1 R913E | 0.83 |

Same assay, conditions: with Flag-CNK^2–549 [Drosophila]; S2 cells; Flag-CNK2–549, V5-KSR, Myc-MEK, GST-HYP co-expressed; captured via GST-HYP; anti-V5 (KSR) blot; parent: 1

| Variant | ratio to parent |
| --- | --- |
| chain 1 R913E | 0.75 |

Variants of: B2
Experiment: GST pull-down, immunoblot quantification
Conditions: with Myc-MEK [Drosophila]; S2 cells; GST-HYP, Flag-CNK2–549 + RRKM co-expressed; anti-Myc (MEK) blot; parent: 1

| Variant | ratio to parent |
| --- | --- |
| chain 2 I97D | 0.68 |
| chain 2 L90D I97D | 0.04 |
| chain 2 L90D | 0.09 |

Variants of: B3
Experiment: GST pull-down, immunoblot quantification
Conditions: with V5-KSR [Drosophila]; S2 cells; GST-HYP, Flag-CNK2–549 + RRKM co-expressed; anti-V5 (KSR) blot; parent: 1

| Variant | ratio to parent |
| --- | --- |
| chain 2 L90D | 0.13 |
| chain 2 I97D | 0.62 |
| chain 2 L90D I97D | 0.05 |

Variants of: B4
Experiment: GST pull-down, immunoblot quantification
Conditions: with Myc-MEK [Drosophila]; S2 cells; GST-HYP + RRKM (Ha-RASV12, Pyo-RAF, V5-KSR, Myc-MEK) co-expressed; captured via GST-HYP; anti-MEK blot; parent: 1

| Variant | ratio to parent |
| --- | --- |
| chain 2 D194K | 0.05 |
| chain 2 Q199A | 0.68 |
| chain 2 V197E | 0.04 |
| chain 2 S193A | 1.01 |
| chain 2 M196E | 0.28 |

Same assay, conditions: with Myc-MEK [Drosophila]; S2 cells; GST-HYP, V5-KSR, Myc-MEK co-expressed; captured via GST-HYP; anti-MEK blot; parent: 1

| Variant | ratio to parent |
| --- | --- |
| chain 2 D194K | 0.05 |
| chain 2 D194K V197E | 0.02 |
| chain 2 Q199A | 0.62 |
| chain 2 V197E | 0.03 |
| chain 2 S193A | 1.09 |
| chain 2 M196E | 0.23 |

Same assay, conditions: with Myc-MEK [Drosophila]; S2 cells; GST-HYP + RRKM co-expressed; captured via GST-HYP; anti-Myc (MEK) blot; parent: 1

| Variant | ratio to parent |
| --- | --- |
| chain 2 F73R V251R | 0.5 |
| chain 2 D80R | 0.9 |
| chain 2 A66F F73R | 0.48 |
| chain 2 F73R | 0.82 |
| chain 2 D80R K282D | 0.34 |
| chain 2 V251R | 0.78 |
| chain 2 A66F | 1.08 |
| chain 2 E249R | 0.76 |
| chain 2 K282D | 0.1 |
| chain 2 E249R V251R | 0.06 |
| chain 2 F73R E249R | 0.13 |

Same assay, conditions: with Myc-MEK [Drosophila]; S2 cells; GST-HYP, Flag-CNK2–549 + RRKM co-expressed; captured via GST-HYP; anti-Myc (MEK) blot; parent: 1

| Variant | ratio to parent |
| --- | --- |
| chain 2 I122D L151D | 0.01 |
| chain 2 I122D | 0.77 |
| chain 2 L151D | 0.05 |

Same assay, conditions: with Myc-MEK [Drosophila], S2 cells, Flag-CNK2–549, V5-KSR, GST-HYP co-expressed, captured via GST-HYP, anti-Myc (MEK) blot, parent: 1

| Variant | ratio to parent |
| --- | --- |
| chain 2 R45F | 1.01 |
| chain 2 Y75R | 0.68 |
| chain 2 R98E | 1.12 |
